Assay results published in the supplement of paper PMC10567573.

B1: KCNG1 (parent)
chain: LFVTVTAVNLSVSTLPSLREEEEQ

Variants of: B1
Experiment: protein stability index of a GFP-peptide fusion (GPS, HEK-293T) (PSI 1-6); higher = more stable
Conditions: c terminus: a fixed tail appended
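Also: lentivirally expressed fusions sorted by FACS into six bins by GFP to DsRed ratio, PSI derived from sequencing read proportions per bin multiplied by bin number.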

| Variant | protein stability index |
| --- | --- |
| V12Q | 1.4 |
| V12W | 2.35 |
| V12P | 1.6 |
| V12T | 2.05 |
| V12L | 3.1 |
| V12H | 1.53 |
| V12Y | 2.08 |
| V12D | 1.71 |
| L1E | 4.32 |
| L1P | 4.33 |
| L1T | 2.62 |
| L1Y | 1.97 |
| T14W | 2.87 |
| T14E | 1.99 |
| T14S | 1.36 |
| T14M | 2.01 |
| T14V | 2.13 |
| V3M | 1.75 |
| V3Q | 3.58 |
| V3K | 3.71 |
| V3P | 5.3 |
| V3L | 1.53 |
| V3C | 2.65 |
| V3T | 4.52 |
| V3W | 1.91 |

| Variant | protein stability index |
| --- | --- |
| V3D | 4.92 |
| V3I | 2.67 |
| V3F | 1.65 |
| V3A | 2.67 |
| F2D | 3.99 |
| F2S | 1.99 |
| F2T | 1.25 |
| F2Y | 1.75 |
| F2M | 1.26 |
| F2C | 1.67 |
| F2A | 2.27 |
| F2P | 4.83 |
| L10K | 2.47 |
| L10I | 3.17 |
| L10W | 2.88 |
| L10M | 2.21 |
| L10H | 2.44 |
| L10G | 2.16 |
| L10P | 2.32 |
| L10Y | 1.95 |
| L10R | 3.45 |
| V8H | 2.95 |
| V8M | 1.23 |
| V8A | 2.02 |
| V8E | 3.16 |

| Variant | protein stability index |
| --- | --- |
| V8Q | 1.85 |
| V8K | 2.15 |
| V8C | 3.11 |
| V8R | 2.51 |
| V8D | 2.29 |
| V8N | 2.49 |
| L18S | 3.17 |
| L18M | 3.35 |
| L18P | 2.48 |
| L18H | 2.87 |
| L18R | 1.57 |
| L18Y | 1.35 |
| N9P | 1.73 |
| N9T | 3.74 |
| P16K | 2.5 |
| P16R | 1.75 |
| P16M | 3.14 |
| P16C | 1.65 |
| S11E | 1.72 |
| S11H | 1.72 |
| S11P | 2.02 |
| S11Y | 4.29 |
| S11G | 1.73 |
| Q24L | 1.02 |
| Q24M | 2.66 |

| Variant | protein stability index |
| --- | --- |
| Q24Y | 2.27 |
| Q24N | 2.31 |
| S13L | 2.71 |
| S13Q | 1.78 |
| S13Y | 3.08 |
| S13I | 2.89 |
| S13F | 1.52 |
| R19H | 1.41 |
| R19L | 2.85 |
| R19E | 1.43 |
| V5E | 4.46 |
| V5H | 3.52 |
| V5F | 2.68 |
| V5L | 2.2 |
| V5S | 3.5 |
| V5N | 3.64 |
| V5P | 4.91 |
| T4A | 1.37 |
| T4E | 1.75 |
| T4N | 2.45 |
| T4M | 3.06 |
| T4Y | 3.61 |
| T4S | 1.49 |
| S17C | 1.79 |
| S17Y | 1.51 |

| Variant | protein stability index |
| --- | --- |
| E22P | 2.31 |
| E22Q | 3.16 |
| E22L | 3.04 |
| E22S | 1.89 |
| T6E | 1.79 |
| T6N | 2.29 |
| T6L | 1.25 |
| A7G | 1.5 |
| A7H | 2.5 |
| A7C | 2.9 |
| E20T | 3.53 |
| E20C | 3.25 |
| E20K | 1.62 |
| E20P | 1.7 |
| E21H | 2.28 |
| E21G | 1.01 |
| E21Y | 3.39 |
| L15M | 2.51 |
| L15Q | 1.05 |
| L15I | 1.36 |
| L15K | 1.62 |
